In article doi:10.1101/2025.11.11.687766:

Columns and labels:
[1] = target: Retron-Eco8 effector (OLD-family nuclease), untagged, of the Retron-Eco8^ATP construct (Escherichia coli); test: cryo-EM structure
[2] = target: Retron-Eco8 reverse transcriptase (RT) (Escherichia coli); test: cryo-EM structure

Substance “Retron-Eco8 effector (OLD-family nuclease), untagged, of the Retron-Eco8^ATP construct (enzyme)” has a stoichiometry N [1] of 4 and a stoichiometry N (RT per effector (4:4)) [2] of 1.
